The text below walks through data of IntAct's records for PubMed 31515488.

Sequences and labels used below:
B1: Forkhead box protein R1 (Homo sapiens), Q6PIV2 (parent)
chain: MGNELFLAFTTSHLPLAEQKLARYKLRIVKPPKLPLEKKPNPDKDGPDYEPNLWMWVNPNIVYPPGKLEVSGRRKREDLTSTLPSSQPPQKEEDASCSEAAGVESLSQSSSKRSPPRKRFAFSPSTWELTEEEEAEDQEDSSSMALPSPHKRAPLQSRRLRQASSQAGRLWSRPPLNYFHLIALALRNSSPCGLNVQQIYSFTRKHFPFFRTAPEGWKNTVRHNLCFRDSFEKVPVSMQGGASTRPRSCLWKLTEEGHRRFAEEARALASTRLESIQQCMSQPDVMPFLFDL
partner: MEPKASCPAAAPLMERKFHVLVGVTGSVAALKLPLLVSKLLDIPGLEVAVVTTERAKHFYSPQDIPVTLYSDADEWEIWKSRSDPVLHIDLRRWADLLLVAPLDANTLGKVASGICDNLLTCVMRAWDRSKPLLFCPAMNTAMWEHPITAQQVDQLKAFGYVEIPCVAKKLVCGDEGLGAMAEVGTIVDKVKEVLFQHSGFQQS
B2: Docking protein 2 (Homo sapiens), O60496 (parent)
chain: MGDGAVKQGFLYLQQQQTFGKKWRRFGASLYGGSDCALARLELQEGPEKPRRCEAARKVIRLSDCLRVAEAGGEASSPRDTSAFFLETKERLYLLAAPAAERGDWVQAICLLAFPGQRKELSGPEGKQSRPCMEENELYSSAVTVGPHKEFAVTMRPTEASERCHLRGSYTLRAGESALELWGGPEPGTQLYDWPYRFLRRFGRDKVTFSFEAGRRCVSGEGNFEFETRQGNEIFLALEEAISAQKNAAPATPQPQPATIPASLPRPDSPYSRPHDSLPPPSPTTPVPAPRPRGQEGEYAVPFDAVARSLGKNFRGILAVPPQLLADPLYDSIEETLPPRPDHIYDEPEGVAALSLYDSPQEPRGEAWRRQATADRDPAGLQHVQPAGQDFSASGWQPGTEYDNVVLKKGPK
partner: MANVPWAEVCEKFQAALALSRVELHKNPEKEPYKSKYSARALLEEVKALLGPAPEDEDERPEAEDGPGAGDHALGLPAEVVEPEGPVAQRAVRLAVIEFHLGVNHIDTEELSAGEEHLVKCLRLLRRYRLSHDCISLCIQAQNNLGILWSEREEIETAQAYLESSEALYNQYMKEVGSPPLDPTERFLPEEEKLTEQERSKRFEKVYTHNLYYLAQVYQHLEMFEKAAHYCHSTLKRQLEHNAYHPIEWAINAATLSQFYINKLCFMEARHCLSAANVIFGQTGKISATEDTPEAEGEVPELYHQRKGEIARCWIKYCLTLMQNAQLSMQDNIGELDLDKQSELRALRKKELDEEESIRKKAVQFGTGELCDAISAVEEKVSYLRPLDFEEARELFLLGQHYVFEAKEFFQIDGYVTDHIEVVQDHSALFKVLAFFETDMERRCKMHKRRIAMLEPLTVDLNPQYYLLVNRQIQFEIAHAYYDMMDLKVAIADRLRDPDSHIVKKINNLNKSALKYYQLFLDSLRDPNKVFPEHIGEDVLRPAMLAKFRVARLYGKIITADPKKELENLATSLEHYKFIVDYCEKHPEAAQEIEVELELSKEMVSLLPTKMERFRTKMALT
B3: Tripartite motif-containing protein 10 (Homo sapiens), Q9UDY6 (parent)
chain: MASAASVTSLADEVNCPICQGTLREPVTIDCGHNFCRACLTRYCEIPGPDLEESPTCPLCKEPFRPGSFRPNWQLANVVENIERLQLVSTLGLGEEDVCQEHGEKIYFFCEDDEMQLCVVCREAGEHATHTMRFLEDAAAPYREQIHKCLKCLRKEREEIQEIQSRENKRMQVLLTQVSTKRQQVISEFAHLRKFLEEQQSILLAQLESQDGDILRQRDEFDLLVAGEICRFSALIEELEEKNERPARELLTDIRSTLIRCETRKCRKPVAVSPELGQRIRDFPQQALPLQREMKMFLEKLCFELDYEPAHISLDPQTSHPKLLLSEDHQRAQFSYKWQNSPDNPQRFDRATCVLAHTGITGGRHTWVVSIDLAHGGSCTVGVVSEDVQRKGELRLRPEEGVWAVRLAWGFVSALGSFPTRLTLKEQPRQVRVSLDYEVGWVTFTNAVTREPIYTFTASFTRKVIPFFGLWGRGSSFSLSS
partner: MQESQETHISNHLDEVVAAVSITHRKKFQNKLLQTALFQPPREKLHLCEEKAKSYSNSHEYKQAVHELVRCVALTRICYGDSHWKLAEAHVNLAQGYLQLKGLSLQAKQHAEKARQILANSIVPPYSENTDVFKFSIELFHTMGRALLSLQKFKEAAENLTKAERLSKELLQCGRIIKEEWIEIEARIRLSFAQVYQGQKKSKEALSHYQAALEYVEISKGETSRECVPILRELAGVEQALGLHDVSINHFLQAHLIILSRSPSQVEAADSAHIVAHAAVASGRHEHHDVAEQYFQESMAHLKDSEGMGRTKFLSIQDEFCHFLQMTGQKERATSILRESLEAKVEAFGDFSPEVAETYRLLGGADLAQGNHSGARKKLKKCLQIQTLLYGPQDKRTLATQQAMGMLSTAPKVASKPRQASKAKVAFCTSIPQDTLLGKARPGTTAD
B4: Armadillo repeat-containing protein 1 (Homo sapiens), Q9NVT9 (parent)
chain: MNSSTSTMSEEPDALSVVNQLRDLAADPLNRRAIVQDQGCLPGLILFMDHPNPPVVHSALLALRYLAECRANREKMKGELGMMLSLQNVIQKTTTPGETKLLASEIYDILQSSNMADGDSFNEMNSRRRKAQFFLGTTNKRAKTVVLHIDGLDDTSRRNLCEEALLKIKGVISFTFQMAVQRCVVRIRSDLKAEALASAIASTKVMKAQQVVKSESGEEMLVPFQDTPVEVEQNTELPDYLPEDESPTKEQDKAVSRVGSHPEGGASWLSTAANFLSRSFYW
B5: LHFPL tetraspan subfamily member 5 protein (Homo sapiens), Q8TAF8 (parent)
chain: MVKLLPAQEAAKIYHTNYVRNSRAVGVMWGTLTICFSVLVMALFIQPYWIGDSVNTPQAGYFGLFSYCVGNVLSSELICKGGPLDFSSIPSRAFKTAMFFVALGMFLIIGSIICFSLFFICNTATVYKICAWMQLAAATGLMIGCLVYPDGWDSSEVRRMCGEQTGKYTLGHCTIRWAFMLAILSIGDALILSFLAFVLGYRQDKLLPDDYKADGTEEV

One test covers variants of B1. As to conditions: with coac_human PPCDC.
Consider A8T, for which the “effect of a mutation on the interaction” value was “with no effect”.
Same read-out and setting: under W127C stands “with no effect”; under E18G, “disrupting interaction strength”.

In a further test the parent is B2. As to conditions: with kbp_human KIFBP.
As for P274L, the “effect of a mutation on the interaction” value is given as “disrupting interaction strength”.

Variants of B3 are the subject of the next test. As to conditions: with ttc23_human TTC23, Q5W5X9.
For R216K, the “effect of a mutation on the interaction” value was “with no effect”.
As for Q161E, the “effect of a mutation on the interaction” value is “with no effect”.
In the case of D30N, the “effect of a mutation on the interaction” value is on record as “with no effect”.
The same measure, in the same setting: under Q210L stands “with no effect”; under I236T, “disrupting interaction strength”.

The next test covers variants of B4. As to conditions: with mfr1l_human MTFR1L.
As to M83T, the “effect of a mutation on the interaction” value is recorded as “with no effect”.

Another test covers variants of B5. As to conditions: with BCL2L13, Q9BXK5.
Chain of BCL2L13, Q9BXK5 (Q9BXK5 whole entry): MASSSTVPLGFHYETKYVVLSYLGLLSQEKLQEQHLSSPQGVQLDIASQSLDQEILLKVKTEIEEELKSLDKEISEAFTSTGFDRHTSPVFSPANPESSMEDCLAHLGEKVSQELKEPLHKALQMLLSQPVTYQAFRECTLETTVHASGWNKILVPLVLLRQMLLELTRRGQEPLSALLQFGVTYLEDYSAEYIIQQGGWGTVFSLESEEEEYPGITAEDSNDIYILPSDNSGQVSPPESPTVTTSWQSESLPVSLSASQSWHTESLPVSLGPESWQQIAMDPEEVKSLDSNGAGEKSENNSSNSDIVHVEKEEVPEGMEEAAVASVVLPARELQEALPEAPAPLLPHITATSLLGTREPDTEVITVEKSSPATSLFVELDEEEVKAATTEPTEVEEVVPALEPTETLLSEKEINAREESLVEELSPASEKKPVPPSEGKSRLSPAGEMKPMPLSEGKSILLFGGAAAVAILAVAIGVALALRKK
With K205N, the “effect of a mutation on the interaction” value was “with no effect”.
